Measurements reported in patent publication US20240317884A1, “METHOD FOR ALLOWING IMMUNE CELLS INFILTRATION IN TUMORS” (Alethia Biotherapeutics Inc., priority 2021, published 2024).
Values joined by “and” are separate entries in the source; they are usually repeats but may differ in a detail not shown here. Equal values may be shown once. “Also recorded” adds a separate entry of the source.

B1: murine 16B5: murine anti-clusterin 16B5 antibody used in mouse studies; VL SEQ ID NO:7, VH SEQ ID NO:8 (antibody, V domains shown)
VH: EVQLQQSGAELVKPGASVRLSCTTSGFNIKDIYMHWVKQRPEQGLEWIGRIDPAYGNTKYDPKFQGKATITADTSSNTAYLQLSSLTSEDTAVYYCARRYDTAMDYWGQGTSVTVSS
VL: DIVMSQSPSSLAVSAGEKVTMSCKSSQSLLNSRTRKNYLAWYQQKPGQSPKLLIYWASTRESGVPDRFTGSGSGTDFTLTISSVQAEDLAVYYCKQSYNLWTFGGGTKLEFK
modifications: Murine 16B5 VH; Murine 16B5 VL

Assays:
[1] = system: 4T1 mouse mammary carcinoma cells; assay: 4T1 model: count of metastatic lung nodules; assay type: in vivo, Balb/c mice; conditions: Balb/c, treatment for 5 weeks (docetaxel 10 mg/kg IP 1X/week; AB-16B5 10 mg/kg IP 2X/week), vs saline control
Method: (§1) Five groups, each consisting of 10 female Balb/c mice were assigned to this study (see Table 5 below). All animals received subcutaneous implantation of 4T1 mouse mammary carcinoma cells in the 4th inguinal mammary gland. Treatment was initiated on the day of implantation (defined as Day 1). Animals from Group 1 (Gr. 1) received IP treatment of saline vehicle control twice a week for the duration of the study. Animals from Group 2 (Gr. 2) received 10 mg/kg of docetaxel weekly for five weeks by IP administration. Animals from Group 3 (Gr. 3) received 10 mg/kg of docetaxel weekly for two weeks and 10 mg/kg of AB-16B5, twice weekly for five weeks. Animals from Group 4 (Gr. 4) received 10 mg/kg of docetaxel weekly and 5 mg/kg of 16B5 twice weekly each over the course of a five weeks treatment. Animals from Group 5 (Gr. 5) received AB-16B5 twice weekly for five weeks. On Day 36, the primary tumors were excised and on Day 37, the animals were sacrificed and the number of grossly visible metastatic nodules on the surface of the lungs was counted.

[2] = system: 4T1 primary tumors; assay: 4T1 model: CD45+ immune cells in primary tumors; assay type: in vivo, Balb/c mice; conditions: Balb/c, 5-week regimens (Groups 2, 4, 5), primary tumors excised at Day 16
Method: as §1
The primary tumors excised at Day 16 post implantation, were processed with collagenase and hyaluronidase and immune cells were purified by positive selection using magnetic latex beads coated with an anti-CD45 antibody. […]

[3] = system: 4T1 lung metastases; assay: 4T1 model: immunohistochemistry of lung metastases; assay type: in vivo; conditions: Balb/c mice, orthotopic 4T1; 10 mg/kg IP thrice a week; Day 36
Source text: Balb/c mice were orthotopically implanted with 5×10^5 4T1 cells in the 4th mammary fat pad. Animals received IP saline treatment thrice weekly. The primary tumor was surgically removed at Day 16 post-implantation. The animals were sacrificed at Day 36 and the lungs were excised. Tissues were fixed in paraformaldehyde and processed for paraffin embedding. Tissue sections were probed with anti-mouse CD3, anti-mouse CD8 and anti-mouse B220 antibodies. […] Results presented in FIG. 1 indicate that the 4T1 lung metastases create an immune cold microenvironment which prevents the infiltration of B and T lymphocytes in tumors. Delineated regions indicate that CD3 and CD8 T lymphocytes are restricted in the tumor margin as a consequence of EMT.
Animals bearing 4T1 tumors were treated with the AB-16B5 antibody (murine 16B5) thrice a week IP at 10 mg/kg. The primary tumor was surgically removed at Day 16 post-implantation. The animals were sacrificed at Day 36 and the lungs were excised. Tissues were fixed in paraformaldehyde and processed for paraffin embedding. Tissue sections were probed with anti-mouse CD3, anti-mouse CD8 and anti-mouse B220 antibodies.

[4] = system: 4T1 tumor cells; assay: INFγ secretion of tumor infiltrating lymphocyte cultures co-cultured with 4T1 cells (ELISA); assay type: cell-based, Balb/c mice; conditions: 100,000 lymphocytes from lung metastatic nodules with 100,000 4T1 cells overnight, individual animals, AB-16B5 10 mg/kg IP twice weekly ± docetaxel 10 mg/kg IP weekly
Method: Balb/c mice were orthotopically implanted with 5×10^5 4T1 cells in the 4th mammary fat pad. Animals received intraperitoneal (IP) AB-16B5 (murine 16B5) 10 mg/kg twice weekly in combination with IP docetaxel 10 mg/kg weekly (Group 15: animals 1501, 1502 and 1503) or IP AB-16B5 10 mg/kg twice weekly (Group 25: […]). The primary tumor was surgically removed at Day 16 post-implantation. The animals were sacrificed at Day 36 and the lungs were excised and each visible lung metastasis was carefully dissected. Each visible metastatic nodule, if any, was excised and processed for a rapid expansion of tumor infiltrating lymphocyte protocol. The metastatic nodules were sectioned into small pieces of 2-3 mm edge that were individually grown in 24 well plates containing culture medium supplemented with FBS, IL2, IL7, ITS (1,000 U/mL IL2, 2.0 ng/mL IL7 and 1× insulin-transferrin-selenium cocktail (Gibco 41400-045)).
After three weeks in culture, 100,000 cells were taken from each of the lymphocyte cultures (six cultures corresponding to three animals from Group 15 and three animals from Group 25) and placed in culture with 100,000 4T1 tumor cells. After overnight co-culture, the supernatant was recovered for INFγ quantification by ELISA.

Molecule | metastatic lung nodules / therapeutic effect on lung metastases [1] | CD45+ immune cells in primary tumors [2] | infiltration of lung metastases with T cells [3] | lung metastases (number and size) [3] | plasmocytes penetration in tumors [3] | INFγ [4]
CC(=O)O[C@@]12CO[C@@H]1C[C@H](O)[C@@]1(C)C(=O)[C@H](O)C3=C(C)[C@@H](OC(=O)[C@H](O)[C@@H](NC(=O)OC(C)(C)C)c4ccccc4)C[C@@](O)([C@@H](OC(=O)c4ccccc4)[C@H]21)C3(C)C [docetaxel] | as many metastatic lung nodules as the saline control group; also recorded: relatively ineffective | very few CD45+ | – | – | – | –
B1 | less metastatic lung nodules | more immune cells | densely infiltrated with CD3 and CD8 T cells | fewer and much smaller lung metastases | evidence of plasmocytes penetration | 8538.8 pg/mL and 3770.0 pg/mL and 4538.8 pg/mL
